Results taken from patent US20250101100A1 (Bristol-Myers Squibb, published 2025).

What was measured:
[1] = target: T1, human NKG2A on cells (human, UniProt P26715 1-233); assay: flow cytometry, blocking of labelled HLA-E pentamer on CHO cells expressing human NKG2A
T1 construct: also called hNKG2A; CHO-hNKG2A
Protocol: As depicted in FIG. 20A, 1×10⁶ human NKG2A-expressing CHO cells were incubated with titrating amounts of anti-NKG2A antibody (10 ug/ml) for 30 minutes at 4° C. […] Cells were read fresh on the BD LSRFortessa.

[2] = target: T1, human NKG2A on cells; assay: flow cytometry, blocking of labelled HLA-E pentamer on NKL cells
[3] = target: T1, human NKG2A on cells; assay: flow cytometry on NKL cells (endogenous human NKG2A), anti-human IgG-PE
Protocol: Cells were washed and stained with fluorescently labeled goat anti-human IgG-PE secondary antibody for 30 minutes at 4° C. to detect the bound antibody on the cell surface. Cells were read fresh on the BD LSRFortessa.

[4] = target: T1, human NKG2A on cells; assay: flow cytometry on CHO cells expressing human NKG2A, anti-human IgG-PE
[5] = target: T2, cynomolgus NKG2A-CD94-mFc (cynomolgus monkey, UniProt Q68VD2 94-233); assay: SPR Biacore T200, 37 °C, Fab as analyte over NKG2A-CD94-mFc immobilized on CM4 chip
T2 construct: also called monkey NKG2A-CD94-mFc (truncated construct); cyNKG2A-CD94; not shown: mouse Fc
T2 sequence (Q68VD2 entry or part of it): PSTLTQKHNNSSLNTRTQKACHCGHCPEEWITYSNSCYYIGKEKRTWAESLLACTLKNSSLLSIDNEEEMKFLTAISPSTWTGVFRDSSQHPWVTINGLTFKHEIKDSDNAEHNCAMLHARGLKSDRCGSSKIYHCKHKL

[6] = target: T3, human NKG2C-CD94 heterodimer (extracellular domains) (human, UniProt Q13241 32-179); assay: SPR Biacore T200, 37 °C, antibody captured by anti-hFc on CM4 chip, heterodimer as analyte
T3 construct: extracellular domain; also called hNKG2C-heterodimer; hNKG2C-CD94
T3 sequence (chain, as listed by the source, chain 1 of 2): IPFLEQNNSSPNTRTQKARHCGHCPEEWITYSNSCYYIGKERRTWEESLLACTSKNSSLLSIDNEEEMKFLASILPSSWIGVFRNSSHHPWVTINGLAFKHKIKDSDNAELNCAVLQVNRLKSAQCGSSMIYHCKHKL
T3 sequence (Q13241 32-179, chain 2 of 2): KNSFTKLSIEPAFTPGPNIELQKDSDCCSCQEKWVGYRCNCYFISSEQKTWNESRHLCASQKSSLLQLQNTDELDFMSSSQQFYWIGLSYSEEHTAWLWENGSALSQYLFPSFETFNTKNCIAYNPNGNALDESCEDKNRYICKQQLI
Description: (§1) All data were double-referenced and fitted to a 1:1 binding model using the Biacore T200 Evaluation Software version 3.1.

[7] = target: T4, human NKG2A-CD94 heterodimer (extracellular domains) (human, UniProt Q13241 32-179); assay: as above
T4 construct: extracellular domain; also called hNKG2A-heterodimer; hNKG2A-hCD94
T4 sequence (chain, as listed by the source, chain 1 of 2): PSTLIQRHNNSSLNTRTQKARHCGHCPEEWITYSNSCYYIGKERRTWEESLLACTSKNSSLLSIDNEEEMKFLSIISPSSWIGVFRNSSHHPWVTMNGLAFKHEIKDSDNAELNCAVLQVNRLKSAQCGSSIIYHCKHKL
T4 sequence (Q13241 32-179, chain 2 of 2): as the sequence (Q13241 32-179, chain 2 of 2) above
Description: as §1

[8] = target: T5, cynomolgus monkey NKG2A on cells (cynomolgus monkey, UniProt Q68VD2 1-233); assay: flow cytometry on CHO cells expressing cynomolgus NKG2A
T5 construct: whole, on cells; On transfected CHO cells or on NK cells of cynomolgus PBMC / blood; also called CHO-cyno NKG2A; CHO-cynomolgus NKG2A
T5 sequence (Q68VD2 entry or part of it): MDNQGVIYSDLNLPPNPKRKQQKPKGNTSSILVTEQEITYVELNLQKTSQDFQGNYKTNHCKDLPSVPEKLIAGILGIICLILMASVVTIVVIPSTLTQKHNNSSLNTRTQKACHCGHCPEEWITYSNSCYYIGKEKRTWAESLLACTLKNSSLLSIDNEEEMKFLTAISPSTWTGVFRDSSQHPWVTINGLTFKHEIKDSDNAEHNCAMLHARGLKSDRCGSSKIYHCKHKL
Protocol: The ability of anti-NKG2A antibodies that bound to cynomolgus NKG2A-expressing CHO cells was assessed. As depicted in FIG. 22A, 1×10⁶ cynomolgus NKG2A-expressing CHO cells were incubated with titrating amounts of anti-NKG2A antibody (10 ug/ml) 10 for 30 minutes at 4° C. […] Cells were read fresh on the BD LSRFortessa.

[9] = target: T1, human NKG2A on cells; assay: flow cytometry on CHO cells expressing human NKG2A
[10] = target: T6, human NKG2C on CHO cells (human, UniProt P26717 1-231); assay: flow cytometry, binding to CHO cells expressing human NKG2C, anti-human IgG-PE
T6 construct: also called CHO-human NKG2C; hNKG2C
T6 sequence (P26717 other isoform, or with tags, fused parts or gaps): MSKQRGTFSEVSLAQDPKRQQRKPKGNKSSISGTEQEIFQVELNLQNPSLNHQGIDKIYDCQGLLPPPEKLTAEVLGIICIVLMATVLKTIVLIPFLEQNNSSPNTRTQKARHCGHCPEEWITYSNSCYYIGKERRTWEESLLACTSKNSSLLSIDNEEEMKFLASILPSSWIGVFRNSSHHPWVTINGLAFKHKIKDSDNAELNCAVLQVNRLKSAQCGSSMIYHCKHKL
Protocol: As depicted in FIG. 18A, 1×10⁶ human NKG2A-expressing or human NKG2C-expressing CHO cells were incubated with titrating amounts of anti-NKG2A antibody for 30 minutes at 4° C. Cells were washed and stained with fluorescently labeled goat anti-human IgG-PE secondary antibody for 30 minutes at 4° C. to detect the bound antibody on the cell surface. Cells were read fresh on the BD LSRFortessa.

[11] = target: T6, human NKG2C on CHO cells; assay: flow cytometry, blocking of HLA-E pentamer binding to CHO cells expressing human NKG2C
[12] = target: T1, human NKG2A on cells; assay: flow cytometry, blocking of HLA-E pentamer binding to CHO cells expressing human NKG2A
[13] = target: T6, human NKG2C on CHO cells; assay: FACS on CHO cells engineered to express human NKG2C-CD94
[14] = target: T4, human NKG2A-CD94 heterodimer …; assay: SPR Biacore T200, 37 °C, antibody captured by anti-human Fc on C1 chip, hNKG2A-hCD94 as analyte

T1 sequence (P26715 whole entry): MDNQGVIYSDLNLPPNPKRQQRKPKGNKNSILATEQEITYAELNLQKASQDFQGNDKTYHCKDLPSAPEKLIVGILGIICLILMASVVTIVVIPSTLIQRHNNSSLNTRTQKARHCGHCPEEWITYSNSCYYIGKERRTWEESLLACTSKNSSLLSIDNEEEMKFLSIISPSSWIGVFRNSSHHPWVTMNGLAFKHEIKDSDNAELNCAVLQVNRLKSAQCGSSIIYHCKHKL

B1: 1G5.B2 antibody (antibody, human IgG1, kappa, V domains shown)
VH: QVQLVESGGGVVQPGRSLRLSCAASGFTFSDYAMHWVRQTPGRGLEWLTFISYDGSNKYHADSVKGRFTISRDNSKNTLFLQMNSLRAEDTAVYYCARDSWDRGYFDLWGRGTLVTVSS
VL: EIVLTQSPATLSLSPGERATLSCRASQSVSSYLAWYQQKPGQAPRLLIYDASNRATGIPARFSGSGSGTDFTLTISSLEPEDFAVYYCQQRSNWWTFGQGTKVEIKR
notes: Hybridoma antibody; printed as IG5.B2 in two paragraphs; also called IG5.B2
[1]
  IC50: 0.7 nM
[2]
  IC50: 0.4 nM
[3]
  EC50: 0.3 nM
[4]
  EC50: 0.6 nM

B2: NKG2A.9 Fab (Fab, V domains shown)
VH: EVQLVESGGGLVKPGGSLRLSCAASGFTFSSHSMNWVRQAPGKGLEWVSAISSSSSYIYYADSVKGRFTISRDNAKNSLYLQMNSLRAEDTAVYYCAREEWGLPFDYWGQGTLVTVSS
VL: AIQLTQSPSSLSASVGDRVTITCRASQGISSALAWYQQKPGKAPKLLIYDASSLKSGVPSRFSGSGSGTDFTLTISSLQPEDFATYYCQQFNSYPLTFGQGTRLEIK
notes: Fab of NKG2A.9
[5]
  KD ratio (cy/h): ~26
  Kd: 1600 nM

B3: 2G6.C2 antibody (antibody, human IgG1, kappa, V domains shown)
VH: EVQLVESGGGLVQRGGSLRLSCAASGFTFSSNSMNWIRQAPGKGLEWVAHISSGSSFIYYADSVKGRFTISRDNAKNSLSLQMNSLRDEDTAVYYCARDDWGIDAFNIWGQGTMVTVSS
VL: EIVLTQSPATLSLSPGERATLSCRASQSVSSSLAWYQQKPGQAPRLLIYDASNRATGIPARFSGSGSGTDFTLTISSLEPEDFAVYYCQQRSNWIFTFGPGTKVDIKR
notes: Hybridoma antibody
[6]
  Half-life of Antibody/Analyte Complex: 23 s
  Kd: 1100 nM
  koff: 0.03 s⁻¹
  kon: 28000 M⁻¹ s⁻¹
[7]
  Half-life of Antibody/Analyte Complex: 19 s
  Kd: 91 nM
  koff: 0.036 s⁻¹
  kon: 400000 M⁻¹ s⁻¹
[1]
  IC50: 1.3 nM
[8]
  EC50: 0.6 nM
[9]
  EC50: 1 nM

B4: 11H9.A1 antibody (antibody, human IgG1, kappa, V domains shown)
VH: EVQLVESGGGLVKPGGSLRLSCAASGFTFSSYSMNWVRQAPGKGLEWVSSISSSSSYIYYADSVKGRFTISRDNAKNSLYLQMNSLRAEDTAVYYCARLLWFGEIFDYWGQGTLVTVSS
VL: AIQLTQSPSSLSASVGDRVTITCRASQGISSALAWYQQKPGKAPKLLIYDASSLKSGVPSRFSGSGSGTDFTLTISSLQPEDFATYYCQQFNSYPITFGQGTRLEIKR
notes: Hybridoma antibody; also called 11H9.A4
[10]
  EC50: 9 nM
[11]
  IC50: 54 nM
[2]
  IC50: 0.1 nM
[3]
  EC50: 0.1 nM
[12]
  IC50: 1 nM
[4]
  EC50: 0.7 nM

B5: NKG2A.5 antibody (antibody, V domains shown)
VH: EVQLVESGGGLVKPGGSLRLSCAASGFTFSSYSMNWVRQAPGKGLEWVSSISSSSSYIYYADSVKGRFTISRDNAKNSLYLQMNSLRAEDTAVYYCARLLWFGEIFDYWGQGTLVTVSS
VL: AIQLTQSPSSLSASVGDRVTITCRASQGISSALAWYQQKPGKAPKLLIYDASSLKSGVPSRFSGSGSGTDFTLTISSLQPEDFATYYCQQFNSYPITFGQGTRLEIK
notes: also called recombinant 11H9.A4
[1]
  IC50: 0.3 nM
[4]
  EC50: 0.3 nM

B6: NKG2A.14 antibody (antibody, human IgG1, kappa, V domains shown)
VH: EVQLVESGGGLVKPGGSLRLSCAASGFTFSSHSMNWVRQAPGKGLEWVSAISSSSSYIYYADSVKGRFTISRDNAKNSLYLQMNSLRAEDTAVYYCAREEWGLPFDYWGQGILVTVSS
VL: AIQLTQSPSSLSASVGDRVTITCRASQGIQSALAWYQQKPGKAPKLLIYDASSLKSGVPSRFSGSGSGTDFTLTISSLQPEDFATYYCQQFNSYPLTFGQGTRLEIKR
notes: IgG1.3f; also called 13F3.A4 VK-N30Q
[1]
  IC50: 0.2 nM
[4]
  EC50: 0.1 nM

B7: NKG2A.10 antibody (antibody, IgG1, V domains shown)
VH: EVQLVESGGGLVKPGGSLRLSCAASGFTFSSHSMNWVRQAPGKGLEWVSAISSSSSYIYYADSVKGRFTISRDNAKNSLYLQMNSLRAEDTAVYYCAREEWGLPFDYWGQGTLVTVSS
VL: AIQLTQSPSSLSASVGDRVTITCRASQGIQSALAWYQQKPGKAPKLLIYDASSLKSGVPSRFSGSGSGTDFTLTISSLQPEDFATYYCQQFNSYPLTFGQGTRLEIKR
notes: IgG1.3f; also called 13F3.A4 VH-I107T, VK-N30Q
[1]
  IC50: 0.05 nM
[8]
  EC50: 1.3 nM
[4]
  EC50: 0.1 nM

B8: NKG2A.12 antibody (antibody, human IgG1, kappa, V domains shown)
VH: EVQLVESGGGLVKPGGSLRLSCAASGFTFSSHSMNWVRQAPGKGLEWVSAISSSSSYIYYADSVKGRFTISRDNAKNSLYLQMNSLRAEDTAVYYCAREEWGLPFDYWGQGTLVTVSS
VL: AIQLTQSPSSLSASVGDRVTITCRASQGINSALAWYQQKPGKAPKLLIYDASSLKSGVPSRFSGSGSGTDFTLTISSLQPEDFATYYCQQFNSYPLTFGQGTRLEIKR
notes: IgG1.3f; also called 13F3.A4 VH-I107T
[1]
  IC50: 0.1 nM
[8]
  EC50: 1.2 nM
[4]
  EC50: 0.2 nM

B9: NKG2A.15 antibody (antibody, human IgG1, kappa)
heavy: EVQLVESGGGLVKPGGSLRLSCAASGFTFSSHSMNWVRQAPGKGLEWVSAISSSSSYIYYADSVKGRFTISRDNAKNSLYLQMNSLRAEDTAVYYCAREEWGLPFDYWGQGILVTVSSASTKGPSVFPLAPSSKSTSGGTAALGCLVKDYFPEPVTVSWNSGALTSGVHTFPAVLQSSGLYSLSSVVTVPSSSLGTQTYICNVNHKPSNTKVDKRVEPKSCDKTHTCPPCPAPEAEGAPSVFLFPPKPKDTLMISRTPEVTCVVVDVSHEDPEVKFNWYVDGVEVHNAKTKPREEQYNSTYRVVSVLTVLHQDWLNGKEYKCKVSNKALPAPIEKTISKAKGQPREPQVYTLPPSREEMTKNQVSLTCLVKGFYPSDIAVEWESNGQPENNYKTTPPVLDSDGSFFLYSKLTVDKSRWQQGNVFSCSVMHEALHNHYTQKSLSLSPGK
light: AIQLTQSPSSLSASVGDRVTITCRASQGIPSALAWYQQKPGKAPKLLIYDASSLKSGVPSRFSGSGSGTDFTLTISSLQPEDFATYYCQQFNSYPLTFGQGTRLEIKRTVAAPSVFIFPPSDEQLKSGTASVVCLLNNFYPREAKVQWKVDNALQSGNSQESVTEQDSKDSTYSLSSTLTLSKADYEKHKVYACEVTHQGLSSPVTKSFNRGEC
notes: IgG1.3f; also called 13F3.A4 VK-N30P
[1]
  IC50: 0.1 nM
[4]
  EC50: 0.1 nM

B10: NKG2A.11 antibody (antibody, human IgG1, kappa)
heavy: EVQLVESGGGLVKPGGSLRLSCAASGFTFSSHSMNWVRQAPGKGLEWVSAISSSSSYIYYADSVKGRFTISRDNAKNSLYLQMNSLRAEDTAVYYCAREEWGLPFDYWGQGTLVTVSSASTKGPSVFPLAPSSKSTSGGTAALGCLVKDYFPEPVTVSWNSGALTSGVHTFPAVLQSSGLYSLSSVVTVPSSSLGTQTYICNVNHKPSNTKVDKRVEPKSCDKTHTCPPCPAPEAEGAPSVFLFPPKPKDTLMISRTPEVTCVVVDVSHEDPEVKFNWYVDGVEVHNAKTKPREEQYNSTYRVVSVLTVLHQDWLNGKEYKCKVSNKALPAPIEKTISKAKGQPREPQVYTLPPSREEMTKNQVSLTCLVKGFYPSDIAVEWESNGQPENNYKTTPPVLDSDGSFFLYSKLTVDKSRWQQGNVFSCSVMHEALHNHYTQKSLSLSPG
light: AIQLTQSPSSLSASVGDRVTITCRASQGIPSALAWYQQKPGKAPKLLIYDASSLKSGVPSRFSGSGSGTDFTLTISSLQPEDFATYYCQQFNSYPLTFGQGTRLEIKRTVAAPSVFIFPPSDEQLKSGTASVVCLLNNFYPREAKVQWKVDNALQSGNSQESVTEQDSKDSTYSLSSTLTLSKADYEKHKVYACEVTHQGLSSPVTKSFNRGEC
notes: Human IgG1.3f, kappa; also called 13F3.A4 VH I107T, VK N30P; 13F3 VH I107T VK N30P
[8]
  EC50: 1.4 nM

B11: P1-069366 antibody (antibody, V domains shown)
VH: QVQLVESGGGVVQPGRSLRLSCAASGFTFSSYAMHWVRQAPGKGLEWVAVISYDGSYKEYADSVKGRFTISRDSSKNTLYLQMNSLRAEDTAVYYCARAQISEYFDYWGQGTLVTVSS
VL: DIQMTQSPSSLSASVGDRVTITCRASQGISSWLAWYQQKPEKAPKSLIYAASSLQSGVPSRFSGSGSGTDFTLTISSLQPEDFATYYCQQYNSYPLTFGQGTKVEIKR
notes: From the immune antibody library (yeast display); also called P10069366
[13]
  binding result: no binding

B12: monalizumab (antibody, V domains shown)
VH: QVQLVQSGAEVKKPGASVKVSCKASGYTFTSYWMNWVRQAPGQGLEWMGRIDPYDSETHYAQKLQGRVTMTTDTSTSTAYMELRSLRSDDTAVYYCARGGYDFDVGTLYWFFDVWGQGTTVTVSS
VL: DIQMTQSPSSLSASVGDRVTITCRASENIYSYLAWYQQKPGKAPKLLIYNAKTLAEGVPSRFSGSGSGTDFTLTISSLQPEDFATYYCQHHYGTPRTFGGGTKVEIKR
[14]
  Half-life of Antibody/Analyte Complex: 3 to 4 s
  Kd: 26 nM
  koff: 0.2 s⁻¹
  kon: 7e+06 M⁻¹ s⁻¹
